From the DeepSol protein solubility set

assay: soluble on expression in E. coli; label from the status in PepcDB or PDB records

| Sequence | soluble on expression in E. coli |
| --- | --- |
| MRLLIITGISGAGKSLVVKYLEDIGFFCVDNLPPLLIGKFAEICLKSRGKISKVALVIDIRGGELFNDLVPELNALKESGIDYEILFLEASDQVLIKRYKESRRIHPLAPEGRLIKGIKTEREILSQIRKNATYIIDTSNLTPRQLKEEILAIFVEGRKFDGMIVNIISFGFKYGIPIECDLVFDVRFIPNPYYIESMKYKTGKDEEVRNYVMSFAETAEFMTKLKDLVDFLIPNYIKEGKSQLVIGVGCTGGRHRSVAISEALFSYLCGREHRVFIDHRDIDKDGRSNRR | soluble |
| MAHHHHHHMVMSQRIAYVTGGMGGIGTSICQRLHKDGFRVVAGCGPNSPRRVKWLEDQKALGFDFYASEGNVGDWDSTKQAFDKVKAEVGEIDVLVNNAGITRDVVFRKMTREDWQAVIDTNLTSLFNVTKQVIDGMVERGWGRIINISSVNGQKGQFGQTNYSTAKAGIHGFTMSLAQEVATKGVTVNTVSPGYIGTDMVKAIRPDVLEKIVATIPVRRLGSPDEIGSIVAWLASEESGFSTGADFSLNGGLHMG | soluble |
| MTNNDPYHTLINEICALSLISTPERFYESANFKISEVDFTLQYQDRDEGRAVLIYGDMGALPTRNRDAALLALMDINFHMFSGVHSPVFSWNAQTSRVLLMGSVSLERASAEGVLLLMKSFADLANEWREHGFIGQVKTAGAPAEQPVATAAKRESLSASGKFQ | not soluble |
| MAHHHHHHMLRGTPVRRASLRYRRPYWMMFLKGVDNWKIYTVIQQPDHQRTEMLYQAWLGGLDRPYTRPKCMANQPLWLSKKRHMLRKERLDGPETPLEKYVLEWHKKFHSFQGTERPTPDDLHTALDLVERPLDLSYALQLLGQCRNLNNIRFAKETFLVFLEACLRVGRRDCAEYALEHAEPLGFWFIDEDHRRYLQGEQTWYKLSPLDNLYYPVEENAKLNEGRKPITRLSPATESPGSGTAISDGEPSTDVEGETTVDDEIAQLEAELAALEREGGGK | not soluble |
| MTHHTEVFEGGTIDIEDDTSLTINGKEISYVHDAVKNKWSSRYLPYTQYDSLLDLARAIIRDTVEFSGVKE | soluble |
| MVSSLIRLRGGGLAEWNPEERPSIPAEIKRRVLVEAGHRCAIPTCRHIEVDIHHIVPWRTCQAHEYENLIALCPNCHRRADREEIDRKSLKLYKLNLRFVHEKYSQIEMDMLFDLARAPDGVGAPWTPFMLIFFKRVIDSGFVNVYELPGGIFVNGIKSSPSYLTITELGRNFISELGDRDLLALEHHHHHH | not soluble |
| MNKKIGITLGDPAGIGPELILKISKHFKEKFTYVIYGEEKTLLEASKLTGIKLNYKKIEKVEEAKERGVYLIDLNVLKVPVVEPSVSSGKAAVAYLARAVADAIRGNIHGILTMPINKFWAKKAGFQYEGQTEFLAKASGTKDYAMMMYSEKLKVVLLTTHIPLKDVPNYVKKEEILKKVRLIRKEFLEKFKFEPLIKVLGLNPHAGEMGELGREEIEEIIPAVEEAKKEGIKVVGPLVPDVAFINPSEEDVFLCMYHDQGLIPFKMLAFDEGVNFTLGLPFIRTSPDHGTAYDIAWKNKARESSSLHALRLIEDLLDKI | soluble |
| MNTTEFDGISHAEGLCDKEFIGKAISYLYRYGQIYIGKKIEPYGIGSGQFPFLMRLYREDGINQESLSDYLKIDKGTTARAIQKLVDEGYVFRQRDEKDRRSYRVFLTEKGKKLEPDMKKIASEWGEILFSSFDDRQRREITNSLEIMFENGLKIM | not soluble |
| MGDILMHYVRKAHEHEVNEVVKYPHTITNTELEEILVSGEECTVLDVREAAEFAFGHIPSATSMPLGELESLVLDKTKQIYVVCRTGNRSDVACQMLKEKGYTNVKNVIPGMIEWQGNIENLEHHHHHH | not soluble |
| MWRNSEERENRTSGRSQGSYQEIIGRTWIFRGAHRGRVNKKNIVWHELIGLKVRVVNSTHPGYVGIEGYVIDETRNMLVIAGENKVWKVPKDVCIFEFETWDGTKIKISGEKLVGRPEMRLKKRWRK | soluble |
| MSLSGKENPNICFLPTATGDADEVIERFYNAKLSENVTHFPLFKFDAGWKETLFEQDIIYVGGGNTRSMLAIWREWGIDRILKQCYEQGIIICGMSAGAICWFEFAVTDSDPEAYQVMRCLGLIDGLAAAHFSHVGEKFEVFQAFARSQPSITCYGIHDYAALHFVDGKLLATVTSFPDAGVLVKTGNDENILRGEGHHHHHH | not soluble |
| MSAFDIVLREGTVVDGTGADPFVADVAISGGRIAAIGPNLSRGTTEINASGQIVTPGFVDLHTHYDGQVTWDNRLAPSSYHGVTTAVIGNCGVGFAPCRRDAASRDAMVRLMEGVEDIPHPVLTEGLPWTWETFPDYLDFLASRTYDIDVAAYVPHAPLRVYVMGQRGADREPATQTDIAEMCRLLEQALDRGALGIATSRSLFHRSSDGTAIPTYQAAQAELMAFAEVLRAKGKGVFQIVEDIHVPGASLDNMRELARTSGRPLTFSIGTGNTGPYGYPRLLDELAAANAEGLVMKGQLMPRGIGMILGFELTLNPFYTTSTFARLAPLPLAERLEQLRRPEIRAAILSEPMDPDPALVLGRAVRDFDHMFLLGDDPDYEQPPERSIAGRAREAGITPEELAYDVMTEGESGGLLYLAMANYADGSLDAVGDILSHPDVVLGLGDGGAHVGTICDASYSTFALCHWARDRQRGRKTVADMVHRMTQATARVIGLEDRGELAVGKRADINVIDLAQLALRPPQVCHDLPAGGRRLIQRATGYSLTMLAGEIVLRDDEPTGLLPGRLIRASLEHHHHHH | not soluble |
| MGSDKIHHHHHHMRIAQIAPLHEAVPPKLYGGTERVVSYLTEALVEMGHDVTLFASGDSQTSAKLEAVWPQALRLDPTIRDVMAPHMLLLEEVRRRADEFDVLHFHIDYYPFPLFSRQPVPHLTTLHGRLDLPELQPIFNTFSDVPVVSISDNQRIPLSQANWLQTTYHGLPENLLKPIPDVKPSYLAFLGRISPEKRVDTAIRIAEQAGMPIKIAAKLDKADRAYYEEKIKPLFSLPHVEYIGEISEAEKAEFLGNAHALLFPIDWPEPFGLVMIEAMACGTPVIAFKRGSVPEVIENGVSGFVVEDELSAVAAVKRLNTLPRERVRAAFDARFTSKVMARNYVKGYEELLRQKRRTVLREVNAG | not soluble |
| MIINITILEDNESDFITLSDSIKKWAANTGILINIIWLNSYKKFIKSLPTLKCDLFFSDIELNCNNSFTGIDACKQLRESGYTGIIIFLTAFKEYVFDGYDVQAFNYLLKPINYGTINNCLDKFIHLFSREFYYLEHHHHHH | soluble |
| MSAFYQIFHDTHYKYDTPVSLAQQLAHLWPRSSPWQRCTEQALEIFPAPTTRRDELDVFGNPLTRLAFERPHDELQVNARLRIEVLERPQLDFNLSPEWEVTRNALTYSAKPMTEDILEACRYRFESPYVHLKRSFVEFSQDCFPVGRPLLLGVQALMEKIFDEFTFDEEATQVATPLVEVLESRRGVCQDFAHLMLACLRSRGLAARYVSGYLLTQPPPGQPRLIGADASHAWVSVFCPASGWVDFDPTNNVQPALEHISLAWGRDFSDVSPLRGVILGGGSHDPDVRVTVMPVSA | not soluble |
| MEVMRGVRVIEGMNGGRFPYCNVVVVGDVVIDAGAGLEVMRKVNASLLVLSHLHPDHSSGAWLFKDVLAPAEGRITLDTLARRFVAPDLVESWKRFISAATGLREFECERYEEGVVVKEPEIVAVPVKGHTMDHHVFLIEQKVLFGADVDLTSFGPFYGNPEADPYLFEREMDKLLDIDFEIFVSAHSKPVFGKELEHHHHHH | not soluble |
| LTLGSISLTAFIMGVVFWGGFNTALEATNTEEFCIGCHSMESKPYQELQKTVHWSNHSGVRATCPDCHVPHSWGRKIARKMEASSDVWGWVFNTVNTSEKFEDKRLEMASREWARFERDDSLACKNCHNYDSMKWDTMSKLAQKQMKRAAEKDQSCVDCHKGIAHILPDMGTARAPQLIAEVGTGPSKFTNEQYYFSALTKPLFFSAKGDVEAGTLNVATKVKILESKENRVKVSISGWRKQIGAGRVIYYDFGINMLTAQLSKEAAKTEGVINGFEEKEDEMTGLKWQRVETTLWTDAEYLITEQQPLWDYARTTFRSSCSVCHTQPDEAHFDA | not soluble |
| METCFANLDEQTKEKAKSILEQKKSGKLTHEQAKEELTKLGVKLPEKEKHEDIFAGLDEATKTKAKAILDNEKKQLEALNVDLPHHKFFMKKEDK | not soluble |
| MIHSSVKRWGNSPAVRIPATLMQALNLNIDDEVKIDLVDGKLIIEPVRKEPVFTLAELVNDITPENLHENIDWGEPKDKEVW | soluble |
